Read-outs that look alike come from different tables or passages of the source.
T1: monkey B7-H3-4Ig-His protein (monkey)
T1 chain: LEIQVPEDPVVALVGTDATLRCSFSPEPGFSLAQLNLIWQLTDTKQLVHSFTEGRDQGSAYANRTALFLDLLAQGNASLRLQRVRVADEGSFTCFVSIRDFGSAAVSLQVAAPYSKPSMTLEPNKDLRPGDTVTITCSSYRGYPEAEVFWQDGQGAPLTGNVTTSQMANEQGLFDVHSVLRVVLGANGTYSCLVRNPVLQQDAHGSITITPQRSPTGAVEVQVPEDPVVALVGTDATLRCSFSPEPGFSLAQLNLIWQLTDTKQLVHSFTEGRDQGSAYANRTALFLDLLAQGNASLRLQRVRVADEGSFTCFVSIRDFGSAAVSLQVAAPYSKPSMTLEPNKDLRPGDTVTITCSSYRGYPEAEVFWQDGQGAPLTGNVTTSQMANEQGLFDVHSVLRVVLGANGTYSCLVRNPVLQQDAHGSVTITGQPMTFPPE

T2: human B7-H3-4Ig-His protein (human, UniProt Q5ZPR3 29-466)
T2 construct: extracellular domain; Made in HEK293-EBNA cells
T2 sequence: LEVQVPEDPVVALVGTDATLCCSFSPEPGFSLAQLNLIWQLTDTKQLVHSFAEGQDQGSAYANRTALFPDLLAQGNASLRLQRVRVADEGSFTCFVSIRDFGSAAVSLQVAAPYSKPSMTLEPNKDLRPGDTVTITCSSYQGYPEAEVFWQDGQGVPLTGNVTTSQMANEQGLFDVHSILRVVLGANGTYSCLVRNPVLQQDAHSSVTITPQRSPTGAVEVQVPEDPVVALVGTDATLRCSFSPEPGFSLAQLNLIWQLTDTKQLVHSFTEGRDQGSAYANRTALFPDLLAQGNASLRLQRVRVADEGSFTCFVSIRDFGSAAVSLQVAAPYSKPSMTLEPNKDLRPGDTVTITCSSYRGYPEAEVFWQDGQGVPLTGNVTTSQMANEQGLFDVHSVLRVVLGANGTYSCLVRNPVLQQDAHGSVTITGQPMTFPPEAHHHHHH

T3: human B7-H3 on human tumor cells (MCF-7, HT29, NCI-N87, HCC1806, HCC827) (human, UniProt Q5ZPR3 29-534)
T3 construct: whole, on cells
T3 sequence (looked up): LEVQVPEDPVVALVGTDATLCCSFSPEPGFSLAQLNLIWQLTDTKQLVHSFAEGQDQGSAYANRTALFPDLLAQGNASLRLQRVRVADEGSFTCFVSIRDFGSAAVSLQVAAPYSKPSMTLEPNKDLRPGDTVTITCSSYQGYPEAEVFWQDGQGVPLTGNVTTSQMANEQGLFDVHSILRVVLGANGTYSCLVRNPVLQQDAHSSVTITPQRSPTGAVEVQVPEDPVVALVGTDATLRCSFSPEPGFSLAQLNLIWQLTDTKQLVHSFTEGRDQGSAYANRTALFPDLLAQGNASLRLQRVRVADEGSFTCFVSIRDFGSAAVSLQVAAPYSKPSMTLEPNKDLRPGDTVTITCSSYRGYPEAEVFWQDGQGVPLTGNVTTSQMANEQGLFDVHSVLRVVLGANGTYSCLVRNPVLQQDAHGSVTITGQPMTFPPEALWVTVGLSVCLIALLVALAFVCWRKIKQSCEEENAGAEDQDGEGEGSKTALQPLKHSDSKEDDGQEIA

B1: anti-human-B7-H3 chimeric antibody 20G11G6 (antibody, V domains shown)
VH: QVQLQESGPGLVKPSGTLSLTCAVSGGSNSSSNWWTWVRQSPGKGLEWIGEISPTGFTSYSPSLKSRVTISVDKSKTQFSLNLSSVTAADTAVYYCARDRLYFDFWGQGTLVTVSS
VL: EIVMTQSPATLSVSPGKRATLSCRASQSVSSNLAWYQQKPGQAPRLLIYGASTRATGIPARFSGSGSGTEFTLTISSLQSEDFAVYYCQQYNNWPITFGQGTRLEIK
notes: Purified from hybridoma of H2L2 transgenic mice: human variable regions with constant regions of rat origin
B2: anti-human-B7-H3 human antibody 2# (antibody, human IgG1, kappa, V domains shown)
VH: B1 VH
VL: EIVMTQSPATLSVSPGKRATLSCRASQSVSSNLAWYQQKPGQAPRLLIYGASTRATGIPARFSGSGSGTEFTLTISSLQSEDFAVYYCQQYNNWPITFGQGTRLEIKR
notes: also called 20G11G6/2#

Assays:
[1] = biological target: T1, monkey B7-H3-4Ig-His protein; experiment: ELISA, antigen coated at 1 ug/ml
[2] = biological target: T2, human B7-H3-4Ig-His protein; experiment: ELISA, antigen coated at 1 ug/ml
[3] = biological target: T3, human B7-H3 on human tumor cells …; experiment: flow cytometry on MCF-7 cells
[4] = biological target: T1, monkey B7-H3-4Ig-His protein; experiment: ELISA, antigen coated at 1 ug/ml
[5] = biological target: T2, human B7-H3-4Ig-His protein; experiment: ELISA, antigen coated at 1 ug/ml; remark: listed apart in the source

Binder	EC50 [1] [µg/mL]	EC50 [2] [µg/mL]	EC50 [3] [µg/mL]	EC50 [4] [µg/mL]	EC50 [5] [µg/mL]
B1	0.0213	0.0165	0.228		
B2				0.00394	0.00297

From EP4596582A1 (Sichuan Kelun-Biotech Biopharmaceutical Co., Ltd., dated 2025)
